Experimental data from US20160251703, “ALLERGEN DETECTION” (DOTS DEVICES, INC., published 2016).

B1: MB6 (ssDNA)
DNA: TGCAGCTAAGCAGGCGGCTCACAAAACCATTCGCATGCGGCGCTGCA
B2: SPN-E* (structured_DNA)
DNA 1: TGCAGCTAAGCAGGCGGCTCACAAAACCATTCGCATGCGGC
DNA 2: CTTAGCTGCA
B3: SPN-E (ssDNA)
DNA: TGCAGCTAAGCAGGCGGCTCACAAAACCATTCGCATGCGGCGCTGC
B4: MB7 (ssDNA)
DNA: TCGCACATTCCGCTTCTACCGGGGGGGTCGAGCTGAGTGGATGCGAATCTGTGGGTGGGCCGTAAGTCCGTGTGTGCGAATGTGCGA
B5: MB9 (ssDNA)
DNA: TCGCACATTCCGCTTCTACCGGGGGGGTCGAGCTGAGTGGATGCGAATCTGTGGGTGGGCCGTAAGTCCGTGTGTGCGAAAATGTGCGA
B6: MB4 (ssDNA)
DNA: TGCAGCTAAGCAGGCGGCTCACAAAACCATTCGCATGCGGCTGCA

Key:
Lysozyme (egg white) [1] = molecular target: T1, Lysozyme (egg white) (UniProt P00698 P00698:19-147); assay: fluorescence turn-on; lysozyme spiked into chocolate cake; conditions: tags: Pierce (Thermo Scientific); label: 5'-fluorescein, 3'-Dabcyl; hairpin
Method: A set of binding assays were performed using lysozyme SPNs (MB4, MB5 and MB6). Experimental procedures: Food samples were homogenized as stated above—generally 2.5 ml buffer was added to 0.5 food sample. The samples were homogenized and centrifuged. 25 ul of the sample was added to a 96 flat bottom well plate. The specific SPN was resuspended to a 100 uM concentration and 25 ul of the SPN was added to the plate—final concentration 50 uM. The samples were immediately read with the GloMax Promega plate reader using the blue laser. (detection was quantified as the intensity of FITC minus the background—buffer alone and non-spiked samples).

Lysozyme (egg white) [2] = molecular target: T1, Lysozyme (egg white); assay: fluorescence turn-on; 100 uM SPN detects 5 ng/mL lysozyme; 25 C; not altered by milk or BSA (FIG. 10); conditions: tags: Pierce (Thermo Scientific); partial duplex with annealed 10-nt quencher linker at 5' end
Method: (§1) Protein samples are diluted to specified concentrations in PBS. The signaling polynucleotide solutions are prepared at 200 μM in 10 mM TRIS-HCl, pH 7.5, heated to 99° C. for 3 minutes and then cooled to room temperature for 20 minutes. Volumes of 60 μL of protein solutions are added to the wells of a 96-well plate. Signaling polynucleotides are added to the wells as soon as possible after the addition of the protein samples. Fluorescence readings are taken immediately with all readings obtained at 25° C. with an excitation wavelength of 495 nm and emission monitored at the fluorescence peak of 519 nm. The signaling polynucleotides were synthesized by TriLink Biotechnologies (San Diego, Calif.), pure lysozyme was obtained from Pierce (Thermoscientific) and BSA was obtained from Sigma Aldrich.
(§2) The data plotted in FIG. 9A indicate that SPN-E* at a concentration of 100 μM detects lysozyme at a 5 ng/mL concentration and increases the detection level to 3 pg/sample. The data plotted in FIG. 9B indicate that SPN-E can be used to detect lysozyme in unprocessed egg white which was diluted 1:20 (sample size was 30 μL). SPN-E gave a minimal signal with BSA as the negative control protein.

Bovine serum albumin = Bovine serum albumin (Bos taurus, UniProt P02769 P02769:25-607); assay: fluorescence turn-on; minimal signal with BSA negative control; conditions: tags: Sigma Aldrich; label: 5'-fluorescein, 3'-DABCYL; hairpin
Method: as §1, §2

Lysozyme (egg white) [3] = molecular target: T1, Lysozyme (egg white); assay: fluorescence turn-on; detects lysozyme 0.6-1200 ng/mL; 12 uM SPN; PBS/Tris pH 7.5, 25 C; conditions: tags: Pierce (Thermo Scientific); label: 5'-fluorescein, 3'-Dabcyl; hairpin
Method: as §1
An assay was performed to obtain a dose curve (12 μM of detection of signaling polynucleotide SPN-E per sample). The results are shown in FIG. 8 and indicate that SPN-E detects lysozyme concentrations ranging from 0.6 ng/mL to 1200 ng/mL, translating to less than 50 pg of lysozyme per sample.

Ovomucoid = Ovomucoid (UniProt P01005 P01005:25-210); assay: ovomucoid spiked in mug cake; conditions: label: 5'-fluorescein, 3'-Dabcyl; hairpin
Ovomucoid, sequence (P01005 25-210, one chain of several): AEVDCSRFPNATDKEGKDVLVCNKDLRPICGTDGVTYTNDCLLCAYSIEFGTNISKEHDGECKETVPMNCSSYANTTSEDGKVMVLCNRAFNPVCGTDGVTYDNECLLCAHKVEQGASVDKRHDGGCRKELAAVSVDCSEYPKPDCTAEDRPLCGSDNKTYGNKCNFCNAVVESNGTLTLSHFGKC

T1 sequence (P00698 19-147, one chain of several): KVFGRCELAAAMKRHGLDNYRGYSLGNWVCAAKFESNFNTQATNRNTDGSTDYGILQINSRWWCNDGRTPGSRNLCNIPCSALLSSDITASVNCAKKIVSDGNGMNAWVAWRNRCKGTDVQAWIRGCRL
Bovine serum albumin, sequence (P02769 25-607, one chain of several): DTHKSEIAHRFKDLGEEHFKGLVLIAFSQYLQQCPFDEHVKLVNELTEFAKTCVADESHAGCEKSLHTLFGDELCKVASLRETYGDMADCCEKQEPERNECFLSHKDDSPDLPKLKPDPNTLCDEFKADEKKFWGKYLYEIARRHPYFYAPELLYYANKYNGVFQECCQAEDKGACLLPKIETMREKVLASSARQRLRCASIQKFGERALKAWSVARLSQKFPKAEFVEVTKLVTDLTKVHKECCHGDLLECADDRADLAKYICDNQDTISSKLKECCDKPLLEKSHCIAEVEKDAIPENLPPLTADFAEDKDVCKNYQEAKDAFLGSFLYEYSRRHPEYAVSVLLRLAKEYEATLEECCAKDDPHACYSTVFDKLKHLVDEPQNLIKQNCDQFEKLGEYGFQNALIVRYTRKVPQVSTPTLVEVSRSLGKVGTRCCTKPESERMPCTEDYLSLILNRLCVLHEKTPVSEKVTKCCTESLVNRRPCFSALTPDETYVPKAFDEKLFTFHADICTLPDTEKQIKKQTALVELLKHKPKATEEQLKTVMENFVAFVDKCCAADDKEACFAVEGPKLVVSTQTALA

| Binder | binding result (Lysozyme (egg white) [1]) | binding result (Ovomucoid) | further results |
| --- | --- | --- | --- |
| B1 | binds |  |  |
| B2 |  |  | binding result (Lysozyme (egg white) [2]): binds |
| B3 |  |  | binding result (Bovine serum albumin): no binding; binding result (Lysozyme (egg white) [3]): binds |
| B4 |  | no binding |  |
| B5 |  | no binding |  |
| B6 | binds |  |  |
